Where only a bound is given, the exact number is not on record here.

Test [1] has as its target CD95 (full-length protein, amino acids 1 to 335) fused C-terminally to mEGFP or mCherry (human (from the printed accession)) (UniProt P25445).
Test [2] has as its target T1, CD95 (full-length protein, amino acids 1 to 335) fused C-terminally to mEGFP or mCherry (human (from the printed accession)), P25445.
T1 chain: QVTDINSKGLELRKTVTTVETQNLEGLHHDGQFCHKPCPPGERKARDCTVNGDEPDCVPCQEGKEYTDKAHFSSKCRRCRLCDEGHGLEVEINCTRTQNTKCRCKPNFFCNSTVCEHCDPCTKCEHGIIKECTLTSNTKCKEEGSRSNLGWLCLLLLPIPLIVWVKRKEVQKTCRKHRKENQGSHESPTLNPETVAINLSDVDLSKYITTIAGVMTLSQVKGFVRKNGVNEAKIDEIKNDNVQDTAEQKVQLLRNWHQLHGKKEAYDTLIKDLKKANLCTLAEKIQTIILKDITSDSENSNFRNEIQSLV
The test can be described thus: FRET or BRET; CELFIS (FRET-FLIM, donor lifetime, x_FRET for each cell) in live HeLa CD95^KO cells with bicistronic mCherry/mEGFP plasmids; no ligand; evaluated from 30 up to 1000 receptors/μm^2; 37°C. The conditions noted are these: remark: other sources report otherwise. For orientation: In BRET a luciferase serves as donor, and the signal depends on an acceptor being close.

The target of test [3] is T1, CD95 (full-length protein, amino acids …). The test can be described thus: FRET or BRET; CELFIS (FRET-FLIM) in live HeLa CD95^KO cells with bicistronic mCherry/mEGFP plasmids; after addition of CD95L (200 ng/ml with enhancer); repeated measurements up to 6 hours; 37°C. The conditions noted are these: remark: other sources report otherwise.

In the case of “FasL, soluble (human) (recombinant) (from UniProt P48023 130-281) (ligand)”, the percentage of apoptotic cells (time-lapse microscopy, HeLa cells expressing CD95-mEGFP), CD95L 2 to 200 ng/ml (% apoptotic cells) in test [1] stood at 99.

B1: CD95 (full-length protein, amino acids 1 to 335) fused C-terminally to mEGFP or mCherry, P25445 26-335 (receptor)
chain: T1 chain
Turning to B1, in test [2], the dimer fraction is < 4% and the monomer fraction is 96%. For the same molecule, in test [3], the oligomer fraction with CD95L is < 21%; the oligomer fraction with CD95L, cells that did not show apoptosis, after 4 hours stood at 12%; the oligomer fraction with CD95L, cells that underwent apoptosis was 18%; the oligomer fraction with CD95L, just before apoptosis is 15%. Moreover, in test [3], the oligomerization rate with CD95L, cells that died (% oligomers/hour) was 6; the oligomerization rate with CD95L, cells that stayed alive (% oligomers/hour) turned out to be 2.3; the x FRET with CD95L worked out at 12%.

For the origin of these results see article PMC11809610.
